Experimental findings from patent publication US11986450B2, “Methods and compositions for treating infection and inflammation with selenocyanate” (National Jewish Health, priority 2017, dated 2024) are described below.

Substrate in this series: N#CSO
The series is described as follows: Kinetic analysis of HOSCN metabolism. It is filed as biochemical. To be noted: other: recombinant mouse Sec-TrxR. The text has this: FIGS. 3A-3B. Kinetic analysis of HOSCN metabolism by recombinant mouse Sec-TrxR and recombinant E. coli Cys-TrxR. […] Sec-TrxR forms that lack a selenocysteine (Sec489Cys) or truncated by the last 8 amino acids (D8) had diminished activity.

B1: recombinant mouse Sec-TrxR (Mus musculus) (protein)
chain: GGQQSFDLLVIGGGSGGLACAKEAAQLGKKVAVADYVEPSPRGTKWGLGGTCVNVGCIPKKLMHQAALLGGMIRDAHHYGWEVAQPVQHNWKTMAEAVQNHVKSLNWGHRVQLQDRKVKYFNIKASFVDEHTVRGVDKGGKATLLSAEHIVIATGGRPRYPTQVKGALEYGITSDDIFWLKESPGKTLVVGASYVALECAGFLTGIGLDTTVMMRSIPLRGFDQQMSSLVTEHMESHGTQFLKGCVPSHIKKLPTNQLQVTWEDHASGKEDTGTFDTVLWAIGRVPETRTLNLEKAGISTNPKNQKIIVDAQEATSVPHIYAIGDVAEGRPELTPTAIKAGKLLAQRLFGKSSTLMDYSNVPTTVFTPLEYGCVGLSEEEAVALHGQEHVEVYHAYYKPLEFTVADRDASQCYIKMVCMREPPQLVLGLHFLGPNAGEVTQGFALGIKCGASYAQVMQTVGIHPTCSEEVVKLHISKRSGLEPTVTGCUG
The Km is the substrate concentration at which the rate is half of its maximum. In the case of B1, the Km was 30 µM.
